Measurements reported in patent US20180002444A1 (ROCKEFELLER UNIVERSITY, published 2018).

T1: recombinant human MERTK (human, UniProt Q12866 26-499, limits assumed)
T1 construct: Analyte in solution in biolayer interferometry; also called hMer
T1 sequence: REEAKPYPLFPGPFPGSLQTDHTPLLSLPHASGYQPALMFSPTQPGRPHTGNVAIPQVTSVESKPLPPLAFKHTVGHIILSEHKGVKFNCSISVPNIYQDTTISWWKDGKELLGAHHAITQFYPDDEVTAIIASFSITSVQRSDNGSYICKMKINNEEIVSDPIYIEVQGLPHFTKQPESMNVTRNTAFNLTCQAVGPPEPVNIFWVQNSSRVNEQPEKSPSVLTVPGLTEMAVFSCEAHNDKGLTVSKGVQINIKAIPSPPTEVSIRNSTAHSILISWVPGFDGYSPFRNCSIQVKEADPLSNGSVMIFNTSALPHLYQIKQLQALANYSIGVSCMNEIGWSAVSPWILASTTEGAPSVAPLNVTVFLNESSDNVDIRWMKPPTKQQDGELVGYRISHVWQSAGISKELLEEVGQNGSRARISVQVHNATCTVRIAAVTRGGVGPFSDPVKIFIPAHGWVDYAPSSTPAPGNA


Legend:
recombinant human MERTK [1] = biological target: T1, recombinant human MERTK; test: biolayer interferometry, M6 loaded on AMQ sensor, hMer as analyte, 1:1 model, local fit at 1.25 nM hMer
Description: (§1) FIG. 11: M6 binds to MERTK with high affinity. M6 binds to human MERTK with high affinity. A diagram showing antibody binding kinetics for M6 (Mer-M6) against human MERTK (hMer) using biolayer interferometry. Purified M6 was loaded on an AMQ sensor at a concentration of 1 microgram/mL to test binding against analytes in solution. All analytes were prepared at 5 nM with a 2-fold dilution series for a total of 7 concentrations. Kinetic fits were calculated using a 1:1 model, with Local fits for each concentration as well as an overall Global fit.

recombinant human MERTK [2] = biological target: T1, recombinant human MERTK; test: biolayer interferometry, M19 loaded on AMQ sensor, hMer as analyte, 1:1 model, local fit at 5 nM hMer
Description: as §1, with “7: M19” for “11: M6 binds to MERTK with high affinity. M6”, “M19 (Mer-M19)” for “M6 (Mer-M6)”, “M19” for “M6”, “global” for “Global”

Kd (recombinant human MERTK [1])	koff (recombinant human MERTK [1])	Kd (recombinant human MERTK [2])	kon (recombinant human MERTK [2])	Binder
0.048 nM	0.00015 s⁻¹	–	–	antibody M6 (antibody, V domains shown, mouse hybridoma monoclonal antibody; also called Mer-M6) VH: QVKLEESGPELKKPGETVKISCKASGYTFTNYGMNWVKQAPGKGLKWMGWINTYTGEPTYADDFKGRFVFSLETSASTAYLQINNLKNEDMATYFCARKSTVVSRYFDVWGAGTTVTVSS VL: DIVLTQTHKFMSTSVGDRVSITCKASQDVGDAVTWCQQKPGQPPKLLIYWASTRHTGVPDRFTGSGSGTDFTLTINNVQSEDLADYFCQQYRSYPLTFGAGTKLELKR
–	–	0.248 nM	3.83e+06 M⁻¹ s⁻¹	antibody M19 (antibody, V domains shown, mouse hybridoma monoclonal antibody; also called Mer-M19) VH: EVQLEESGPDLKKPGETVKISCKASNYTFTDYSMHWVKQAPGKGLKWVGWINTDTGEPTYADDFKGRFAFSLETSASTAYLQINNLKNEDTATYFCARWFGAMDYWGQGTSVTVSS VL: DIVITQSHKFMSTSVGDRVSITCKASQDVTNVVAWYQQKPGQSPKLLIYSASYRYTGVPDRFTGSGSGTDFTFTISSVQAEDLAVYYCQQYYRTPRTFGGGTKLEIKR
